Data reported in patent US9623039B2, “Treatment and prevention of pathological conditions using iduna related techniques and compositions” (VALTED, LLC, priority 2010, dated 2017).

Experiments:
PAR polymer [1] = test: EMSA for PAR binding
Description: PAR binding is specified by a sequence of approximately 20 amino acids containing N-terminal basic amino acids and a C-terminal region containing alternating hydrophobic and basic amino acids (FIG. 24). Iduna contains a predicted PAR polymer binding sequence within amino acids 144-167 of the WWE domain (FIGS. 1 and 24). The PAR-binding domain was defined by comparing to the consensus sequence for PAR-binding and the known PAR binding domain of Histone 3 (FIG. 24). HEK293 cells were transfected with GFP, GFP-Iduna lacking the WWE domain (GFP-IdunaΔWWE), GFP-Iduna lacking the RF domain (GFP-IdunaARF), and full-length GFP-Iduna, followed by immunoprecipitation with a GFP antibody. […] Only GFP-Iduna-ARF and full-length GFP-Iduna can co-immunoprecipiate PAR binding proteins (FIG. 25). The critical amino acids in the PAR binding domain, 156Y and 157R, were mutated to 156A and 157A in full length Iduna (Iduna-YRAA). […] Similar results are obtained with a biotin-tagged PAR polymer followed by detection with an anti-biotin antibody (FIG. 26). […] Histone H3 is a known PAR binding protein and was used as a positive control for the PAR overlay assay. […] An assay based on electrophorectic mobility shift (EMSA) for PAR binding was developed to monitor PAR polymer binding to Iduna. […]

PAR polymer [2] = test: Competition binding of unlabeled PAR polymer against [32P]-labeled PAR polymer
Protocol: The affinity of Iduna and Iduna-YRAA for PAR binding was determined by a competition assay with increasing concentrations of unlabeled PAR polymer against 2.5 nM [^32P]-labeled PAR polymer (mean size of 40 ADP-ribose units) (FIG. 29). […] The PAR polymer synthesized by in vitro automodification of PARP-1 has a mean length of 40 ADP-ribose residues and accordingly the concentration of PAR is given as a function of polymer molecules with a mean size of 40 ADP-ribose units. These concentrations of PAR polymers are within the range of polymer concentrations found in intact cells during NMDA excitotoxicity and N-methyl-N-nitro-N-nitrosoguanidine (MNNG) toxicity. PAR polymer fails to bind to Iduna-YRAA (FIG. 29). […] The observed Kd is 10 times less than the PAR polymer concentration found after NMDA-induced excitotoxicity in cortical neurons.
Nitrocellulose PAR-binding Assay: Synthetic peptides or purified proteins were diluted in TBS-T buffer (1 μg/μl) and loaded onto a nitrocellulose membrane (0.05 μm) using a dot blot manifold system (Life Technologies). The membranes were washed once with TBS-T buffer, removed from the manifold and air dried. The membranes were then incubated in 10 ml of TBS-T buffer containing an indicated concentration of both [^32P]-labeled automodified PARP-1 and [^32P]-labeled PAR polymer for 3 h at room temperature with constant shaking. The membranes were washed with TBS-T buffer at 4° C. until no radioactivity could be detected in the waste. Finally, the membrane was air dried and subjected to autoradiography on Bio-Max MR (Kodak) films or analyzed by Cerenkov counting using an Instant Imager system (Perkin Elmer).

MCF7 cells = test: Cell cycle analysis after γ-irradiation; type: cell-based, human; details: γ-irradiation 2 Gy
Protocol: Cell cycle analysis. Studies were performed to evaluate the cell cycle response of each stable cell lines. Cells were plated onto 150 mm culture dishes and cultured for 24 h at 37° C. with fresh growth medium. Following replacement of growth medium, cells were irradiated at 2 Gy with a Gammacell irradiator. After 12 h, cells were washed once with PBS and incubated with PBS containing 0.2% EDTA for 5 min at 37° C., thereafter scraped with fresh growth medium and collected at 500×g at 4° C. Collected cells were washed once with ice cold PBS and then fixed with 70% ethanol. Cells were washed once with PBS containing 1% FBS and resuspended into propidium iodide (PI) staining buffer (PBS, pH 7.4, 50 μg/ml PI, 1% FBS, 100 μg/ml RNase) for 30 min at 37° C. Cells were monitored for DNA content by a flow cytometry (BD Biosciences) and then data were analyzed with FlowJo using Dean-Jett-Fox model for the quantification of each cell cycle phase.

primary neurons = test: H2O2-induced cell death in primary neurons; type: cell-based, mouse; details: 100 μM H2O2
Protocol: FIGS. 44 and 45—Iduna protects against peroxide-induced cell death in primary neurons. Primary neuronal cultures were transduced with lentiviruses expressing GFP, GFP-Iduna or GFP-Iduna-YRAA. 4 days following lentiviral transduction, cultures were treated with H2O2 (100 μM or 500 μM) and cell death assessed 24 h later using PI and Hoechst staining.
Cell Death Assessment: Following exposure of neuronal cultures to the various treatments neuronal survival was quantified and presented as percent of cell death. Percent cell death was determined as the ratio of live-to-dead cells compared with the percent cell death in control wells to account for cell death attributable to mechanical stimulation of the cultures. Quantification of neuronal survival was determined by staining treated cultures with 5 μM Hoechst 33342 and 2 μM propidium iodide (PI) (Invitrogen, Carlsbad, Calif.). Culture plates were placed on a mechanized stage of a Zeiss microscope and photomicrographs were collected by a blinded observer. The numbers of total and dead (PI positive) cells were counted by automated computer assisted software (Axiovision 4.6, Zeiss, Germany). The raw counts are presented in an Excel file for generation of percent cell death and statistical analysis. Glial nuclei fluoresce at a lower intensity than neuronal nuclei and were gated out by the software program. […]

B1: Iduna: novel NMDA-induced cell survival protein, PAR-dependent E3 ligase; 359 amino acids (protein)
chain: MEMAGCGEIDHSINMLPTNKKANESCSNTAPSLTVPECAICLQTCVHPVSLPCKHVFCYLCVKGASWLGKRCALCRQEIPEDFLDKPTLLSPEELKAASRGNGEYAWYYEGRNGWWQYDERTSRELEDAFSKGKKNTEMLIAGFLYVADLENMVQYRRNEHGRRRKIKRDIIDIPKKGVAGLRLDCDTNTVNLARESSADGADSGSAQTGASVQLAVPSSTRPLTSVDGQLTSPVTPSPDAGISLEDSFAHLQLSGDSIAERSHRGEGEEDHESPSSGRVPDTSVEETESDASSDSEDAPVVVAQHSLTQQRPLVPNGNQTVADQSDRSGTDRSVAGGGTMSVNVRSRRPDGQCTVIEV
PAR polymer [1]
  PAR polymer mobility shift: retards the mobility shift of PAR polymer
PAR polymer [2]; competitive binding curve
  maximum binding capacity (Bmax): 3.04 ± 0.16 µmol
PAR polymer [2]; homologous competitive binding curve, Cheng-Prusoff equation, read-out: dissociation constant (Kd)
  Kd: 12 nM
PAR polymer [2]; unlabeled PAR polymer against 2.5 nM [32P]-labeled PAR polymer, mean size 40 ADP-ribose units, read-out: EC50 of wild type Iduna for PAR polymer
  EC50: 14.5 ± 0.13 nM
MCF7 cells
  cell cycle arrest and cell survival: rescues cells from G1 arrest in the cell cycle and promotes cell survival
Primary neurons
  protection against H2O2 toxicity: protects only against 100 μM H2O2
